Target: binding between SARS-CoV-2 Wuhan RBD-Fc and hACE2-AP (UniProt P0DTC2+Q9BYF1)
Parameters: species or system SARS-CoV-2; human

Chain of binding between SARS-CoV-2 Wuhan RBD-Fc and hACE2-AP (Q9BYF1 18-740, one chain of several): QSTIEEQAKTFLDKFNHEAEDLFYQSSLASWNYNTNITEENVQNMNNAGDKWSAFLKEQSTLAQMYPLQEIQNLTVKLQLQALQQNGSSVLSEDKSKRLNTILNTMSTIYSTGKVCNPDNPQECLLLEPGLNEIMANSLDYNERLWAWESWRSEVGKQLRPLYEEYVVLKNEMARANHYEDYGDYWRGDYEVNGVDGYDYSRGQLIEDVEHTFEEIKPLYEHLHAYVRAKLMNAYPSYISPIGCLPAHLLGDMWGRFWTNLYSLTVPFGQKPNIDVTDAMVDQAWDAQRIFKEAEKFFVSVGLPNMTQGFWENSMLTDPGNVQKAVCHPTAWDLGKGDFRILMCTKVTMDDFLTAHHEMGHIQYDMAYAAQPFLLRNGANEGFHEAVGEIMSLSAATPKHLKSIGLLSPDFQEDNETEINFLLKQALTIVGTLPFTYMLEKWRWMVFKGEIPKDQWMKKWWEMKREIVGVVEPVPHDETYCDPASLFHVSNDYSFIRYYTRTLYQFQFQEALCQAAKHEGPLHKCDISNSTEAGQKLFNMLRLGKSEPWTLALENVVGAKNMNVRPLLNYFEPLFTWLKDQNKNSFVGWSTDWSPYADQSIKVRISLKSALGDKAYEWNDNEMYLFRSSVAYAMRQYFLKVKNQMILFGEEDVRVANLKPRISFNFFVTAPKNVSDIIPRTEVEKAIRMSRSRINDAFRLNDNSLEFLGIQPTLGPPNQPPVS

## shACE2
  IC50, inhibition of hACE2-AP to RBD-Fc interaction: 1.42 µg/mL

From publication PMC12326988, “Synthetic host defense peptide inhibits SARS-CoV-2 replication in vitro” (Antimicrobial Agents and Chemotherapy, 2025)
